# Where a chain is given by its changes, count along the chain named. Names may count otherwise.
# B1: 8A3 variant HC I107M / LC N33Y, Y35H, S57L, S61H (antibody, V domains shown)
# VH: not shown
# VL: DIVMTQSPLSLPVTPGEPASISCRSSQSLLHSYGHNYLDWYLQKPGQSPQLLIYLGLNRAHGVPDRFSGSGSGTDFTLKISRVEAEDVGVYYCMQALQTPLTFGGGTKVEIKR
# B2: 8A3 variant HC WT / LC N33Y, Y35H, S57L, S61H (antibody, V domains shown)
# VH: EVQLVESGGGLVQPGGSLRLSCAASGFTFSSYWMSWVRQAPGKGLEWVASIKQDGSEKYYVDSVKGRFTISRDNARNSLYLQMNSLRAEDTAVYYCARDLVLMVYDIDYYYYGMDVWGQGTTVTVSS
# VL: B1 VL
# B3: 8A3 variant HC M103F/I107M / LC N33Y, Y35H, S57L, S61H (antibody, V domains shown)
# VH: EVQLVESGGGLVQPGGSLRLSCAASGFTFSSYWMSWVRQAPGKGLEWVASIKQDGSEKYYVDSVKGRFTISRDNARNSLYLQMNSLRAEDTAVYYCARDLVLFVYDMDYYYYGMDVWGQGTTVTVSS
# VL: B1 VL
# B4: SS-15495 (antibody, V domains shown)
# VH: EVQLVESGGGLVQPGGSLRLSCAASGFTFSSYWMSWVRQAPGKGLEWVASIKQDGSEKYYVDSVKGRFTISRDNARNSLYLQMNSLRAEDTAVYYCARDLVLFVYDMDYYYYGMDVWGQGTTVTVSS
# VL: B1 VL with Y33F
# notes: HC M103F/I107M, LC N33F, Y35H, S57L, S61H
# B5: SS-15505 (antibody, V domains shown)
# VH: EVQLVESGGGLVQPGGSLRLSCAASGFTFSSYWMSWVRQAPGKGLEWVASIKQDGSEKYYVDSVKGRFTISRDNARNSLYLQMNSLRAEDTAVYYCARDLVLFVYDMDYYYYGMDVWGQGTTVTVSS
# VL: B1 VL with Y33N
# notes: HC M103F/I107M, LC Y35H, S57L, S61H
# B6: 8A3 variant HC M103N/I107M / LC N33Y, Y35H, S57L, S61H (antibody, V domains shown)
# VH: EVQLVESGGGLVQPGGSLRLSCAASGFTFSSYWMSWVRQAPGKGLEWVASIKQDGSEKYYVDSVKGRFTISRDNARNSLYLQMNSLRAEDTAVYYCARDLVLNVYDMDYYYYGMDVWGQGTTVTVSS
# VL: B1 VL
# B7: SS-15496 (antibody, V domains shown)
# VH: not shown
# VL: B1 VL with Y33F
# notes: HC I107M, LC N33F, Y35H, S57L, S61H
# B8: SS-15501 (antibody, V domains shown)
# VH: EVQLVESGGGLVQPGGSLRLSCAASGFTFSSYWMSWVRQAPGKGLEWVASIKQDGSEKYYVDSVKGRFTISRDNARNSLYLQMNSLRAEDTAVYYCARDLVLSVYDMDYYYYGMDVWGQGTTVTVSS
# VL: B1 VL with Y33F
# B9: SS-15506 (antibody, V domains shown)
# VH: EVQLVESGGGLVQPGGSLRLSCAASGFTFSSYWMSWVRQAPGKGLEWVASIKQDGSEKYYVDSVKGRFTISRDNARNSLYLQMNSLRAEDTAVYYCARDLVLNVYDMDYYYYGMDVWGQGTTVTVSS
# VL: B1 VL with Y33N
# notes: HC M103N/I107M, LC Y35H, S57L, S61H
# B10: SS-15508 (antibody, V domains shown)
# VH: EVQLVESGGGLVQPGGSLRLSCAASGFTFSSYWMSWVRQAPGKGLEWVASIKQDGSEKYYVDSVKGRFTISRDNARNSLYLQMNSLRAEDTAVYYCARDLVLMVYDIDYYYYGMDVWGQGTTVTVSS
# VL: B1 VL with Y33F
# notes: HC WT, LC N33F, Y35H, S57L, S61H
# B11: SS-15504 (antibody, V domains shown)
# VH: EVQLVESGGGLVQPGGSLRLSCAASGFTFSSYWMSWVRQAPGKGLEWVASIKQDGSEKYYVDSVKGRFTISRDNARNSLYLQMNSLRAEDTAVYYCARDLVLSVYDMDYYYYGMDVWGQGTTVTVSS
# VL: B1 VL with Y33N
# notes: HC M103S/I107M, LC Y35H, S57L, S61H
# B12: SS-15195 (antibody, V domains shown)
# VH: not shown
# VL: B1 VL with Y33N
# notes: HC I107M, LC Y35H, S57L, S61H
# B13: SS-15500 (antibody, V domains shown)
# VH: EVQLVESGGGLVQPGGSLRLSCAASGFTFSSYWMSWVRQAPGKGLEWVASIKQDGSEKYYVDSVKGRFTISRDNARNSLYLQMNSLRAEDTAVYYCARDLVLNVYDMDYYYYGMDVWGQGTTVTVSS
# VL: B1 VL
# B14: 8A3 variant HC M103S/I107M / LC N33Y, Y35H, S57L, S61H (antibody, V domains shown)
# VH: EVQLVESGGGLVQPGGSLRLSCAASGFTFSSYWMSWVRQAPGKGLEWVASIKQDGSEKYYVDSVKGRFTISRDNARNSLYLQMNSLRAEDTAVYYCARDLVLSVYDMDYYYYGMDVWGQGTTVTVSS
# VL: B1 VL
# B15: SS-15497 (antibody, V domains shown)
# VH: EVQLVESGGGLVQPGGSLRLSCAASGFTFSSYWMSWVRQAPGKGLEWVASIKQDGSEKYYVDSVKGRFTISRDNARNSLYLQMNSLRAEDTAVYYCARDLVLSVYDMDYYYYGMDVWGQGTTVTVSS
# VL: DIVMTQSPLSLPVTPGEPASISCRSSQSLLHSGNGYNYLDWYLQKPGQSPQLLIYLGLNRASGVPDRFSGSGSGTDFTLKISRVEAEDVGVYYCMQAIHTPLTFGGGTKVEIKR
# notes: HC VH6 (M103S, I107M), LC G33 insertion, S57L, L97I, Q98H
# B16: SS-15498 (antibody, V domains shown)
# VH: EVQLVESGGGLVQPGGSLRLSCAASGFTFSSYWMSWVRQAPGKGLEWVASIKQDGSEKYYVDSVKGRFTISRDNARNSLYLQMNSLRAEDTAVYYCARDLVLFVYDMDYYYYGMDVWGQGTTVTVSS
# VL: B15 VL
# notes: No entry of its own
# B17: SS-15499 (antibody, V domains shown)
# VH: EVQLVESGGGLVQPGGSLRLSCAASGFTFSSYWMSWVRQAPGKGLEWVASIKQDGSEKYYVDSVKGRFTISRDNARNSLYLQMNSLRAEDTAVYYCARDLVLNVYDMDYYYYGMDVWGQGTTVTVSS
# VL: B15 VL
# notes: No entry of its own
# B18: SS-13991 (antibody, V domains shown)
# VH: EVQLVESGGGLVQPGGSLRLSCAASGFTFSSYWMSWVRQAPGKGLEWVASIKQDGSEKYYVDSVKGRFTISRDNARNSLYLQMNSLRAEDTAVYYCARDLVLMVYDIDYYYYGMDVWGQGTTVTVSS
# VL: B1 VL with Y33N
# notes: HC WT, LC Tyr38(35)His, Ser68(57)Leu, Ser72(61)His; also called A02
# B19: SS-13993 (antibody, V domains shown)
# VH: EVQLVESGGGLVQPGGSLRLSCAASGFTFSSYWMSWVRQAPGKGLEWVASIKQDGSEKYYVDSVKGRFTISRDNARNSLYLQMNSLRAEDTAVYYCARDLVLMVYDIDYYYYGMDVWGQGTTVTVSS
# VL: B1 VL with Y33N, H61S, S72H
# notes: HC WT, LC Tyr38(35)His, Ser68(57)Leu, Ser83(72)His; also called C02
# B20: SS-15516 (antibody, V domains shown)
# VH: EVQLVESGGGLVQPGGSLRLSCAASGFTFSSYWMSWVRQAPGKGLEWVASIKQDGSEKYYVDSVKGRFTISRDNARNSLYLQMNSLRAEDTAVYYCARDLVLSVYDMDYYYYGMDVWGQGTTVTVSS
# VL: B15 VL with L58F
# notes: HC VH6, LC G33, S57F, L97I, Q98H
# B21: SS-15520 (antibody, V domains shown)
# VH: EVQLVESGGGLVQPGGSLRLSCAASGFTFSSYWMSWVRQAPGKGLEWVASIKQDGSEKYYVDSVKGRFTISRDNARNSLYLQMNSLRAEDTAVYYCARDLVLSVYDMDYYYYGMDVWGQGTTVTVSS
# VL: B15 VL with L58Q
# notes: HC VH6, LC G33, S57Q, L97I, Q98H
# B22: SS-15519 (antibody, V domains shown)
# VH: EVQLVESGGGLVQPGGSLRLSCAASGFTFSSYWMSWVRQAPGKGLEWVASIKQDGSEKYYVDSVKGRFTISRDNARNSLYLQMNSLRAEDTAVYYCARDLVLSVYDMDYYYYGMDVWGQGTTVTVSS
# VL: B15 VL with L58W
# notes: HC VH6, LC G33, S57W, L97I, Q98H
# B23: SS-14894 (antibody, V domains shown)
# VH: not shown
# VL: B15 VL with I98L, H99Q
# notes: HC I107M, LC G33, S57L
# B24: SS-15518 (antibody, V domains shown)
# VH: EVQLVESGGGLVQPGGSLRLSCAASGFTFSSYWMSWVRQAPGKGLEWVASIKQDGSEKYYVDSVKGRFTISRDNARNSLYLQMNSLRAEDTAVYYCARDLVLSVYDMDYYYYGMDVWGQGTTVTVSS
# VL: B15 VL with L58N
# notes: HC VH6, LC G33, S57N, L97I, Q98H
# B25: SS-15515 (antibody, V domains shown)
# VH: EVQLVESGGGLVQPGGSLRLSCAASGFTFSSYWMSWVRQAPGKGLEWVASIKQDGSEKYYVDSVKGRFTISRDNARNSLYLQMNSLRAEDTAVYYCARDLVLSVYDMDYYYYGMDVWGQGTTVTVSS
# VL: B15 VL with L58M
# notes: HC VH6, LC G33, S57M, L97I, Q98H
# Biological target: T1, human PCSK9 (self-cleaved, mature, secreted PCSK9 comprising amino acids 31 to 692 of SEQ ID NO: 2) (human, UniProt Q8NBP7 31-692, biotinylated in the ELISAs)
# T1 construct: Limits 31-692 are stated for the immunogen; the assays only say human PCSK9; also called huPCSK9; rhu PCSK9
# Test: SPR pH 7.4
# Method: (§1) In order to determine the binding kinetics at the neutral pH, the biosensor analysis was conducted at 25° C. in a HBS-P buffer system (10 mM HEPES pH 7.4, 150 mM NaCl, and 0.05% Surfactant P20) using a ProteOn XPR36 optical biosensor (Bio-Rad, Hercules, Calif.) equipped with a GLC sensor chip (Bio-Rad, Hercules, Calif.). […] This surface type provided a format for reproducibly capturing fresh analysis antibodies (ligand) after each regeneration step. […] Blank (buffer) injections were run simultaneously with the five analyte concentrations and used to assess and subtract system artifacts. […] The surface was regenerated with 10 mM glycine, pH 1.5 for 30 s, at a flow rate of 50 uL/min. The data was aligned, double referenced, and fit to a simple 1:1 binding model using the ProteOn Manager 3.1.0 version 3.1.06 © software (Bio-Rad, Hercules, Calif.).
Binder,Kd [nM],koff [s⁻¹],kon [M⁻¹ s⁻¹]
B1,0.572,0.000326,570000
B2,2.81,0.00115,410000
B3,0.528,0.000253,480000
B4,0.285,0.000152,534000
B5,0.0763,1.98e-05,260000
B6,0.819,0.000425,519000
B7,0.292,0.000194,665000
B8,0.804,0.000578,719000
B9,0.245,5.89e-05,240000
B10,1.57,0.00092,585000
B11,0.232,8.26e-05,356000
B12,0.0611,1.98e-05,325000
B13,0.459,0.000304,663000
B14,1.28,0.000758,594000
B15,0.249,9.47e-05,381000
B16,0.123,4.14e-05,335000
B17,0.199,5.98e-05,301000

# Biological target: T1, human PCSK9 (self-cleaved, mature, …)
# Test: SPR pH 7.4
# Remark: another data set of the same source
# Method: as §1
Binder,Kd [nM],koff [s⁻¹],kon [M⁻¹ s⁻¹]
B1,0.572,0.000326,570000
B2,2.81,0.00115,410000
B3,0.528,0.000253,480000
B4,0.285,0.000152,534000
B5,0.0763,1.98e-05,260000
B6,0.819,0.000425,519000
B7,0.292,0.000194,665000
B8,0.804,0.000578,719000
B9,0.245,5.89e-05,240000
B10,1.57,0.00092,585000
B11,0.232,8.26e-05,356000
B12,0.0611,1.98e-05,325000
B13,0.459,0.000304,663000
B14,1.28,0.000758,594000
B15,0.249,9.47e-05,381000
B16,0.123,4.14e-05,335000
B17,0.199,5.98e-05,301000

# Biological target: T1, human PCSK9 (self-cleaved, mature, …)
# Test: solution equilibrium, BIAcore
# Method: (§2) Antibody was immobilized on the second flow cell of a CM5 chip using amine coupling (reagents provided by GE Healthcare, Piscataway, N.J.) with an approximate density of 7000 RU. The first flow cell was used as a background control. […] Binding of free PCSK9 in the mixed solutions was measured by injecting over the antibody coated chip surface. One hundred percent PCSK9 binding signal on the antibody surface was determined in the absence of antibody in the solution. A decreased PCSK9 binding response with increasing concentrations of antibody in solution indicated PCSK9 was binding to the antibody, preventing PCSK9 from binding to the immobilized antibody surface. Plotting the PCSK9 binding signal versus antibody concentration, the KD was obtained from nonlinear regression of the competition curves using an n-curve one-site homogeneous binding model provided in the KinExA Pro software.
row,Binder,KD ratio pH 5.5/pH 7.4
1,B18,9.7
2,B12,12.9
3,B19,12.2
4,B15,8.1
5,B20,8.3
6,B21,7.1
7,B22,10.4
8,B23,8.8
9,B24,8.6
10,B25,12.5

# Biological target: T1, human PCSK9 (self-cleaved, mature, …)
# Test: solution equilibrium, BIAcore, pH 5.5
# Method: as §2
row,Binder,Kd [nM]
1,B18,2.8
2,B12,0.45
3,B19,2.8
4,B15,0.68
5,B20,1
6,B21,1.2
7,B22,0.86
8,B23,1.5
9,B24,1.2
10,B25,1.5

# Biological target: T1, human PCSK9 (self-cleaved, mature, …)
# Test: solution equilibrium, BIAcore, pH 7.4
# Method: as §2
row,Binder,Kd [nM]
1,B18,0.29
2,B12,0.035
3,B19,0.23
4,B15,0.084
5,B20,0.12
6,B21,0.17
7,B22,0.083
8,B23,0.17
9,B24,0.14
10,B25,0.12
